This assay addresses T1, BoNT/B-HC (binding domain of botulinum neurotoxin type B, residues 857-1291) (UniProt P10844 857-1291).
T1 sequence: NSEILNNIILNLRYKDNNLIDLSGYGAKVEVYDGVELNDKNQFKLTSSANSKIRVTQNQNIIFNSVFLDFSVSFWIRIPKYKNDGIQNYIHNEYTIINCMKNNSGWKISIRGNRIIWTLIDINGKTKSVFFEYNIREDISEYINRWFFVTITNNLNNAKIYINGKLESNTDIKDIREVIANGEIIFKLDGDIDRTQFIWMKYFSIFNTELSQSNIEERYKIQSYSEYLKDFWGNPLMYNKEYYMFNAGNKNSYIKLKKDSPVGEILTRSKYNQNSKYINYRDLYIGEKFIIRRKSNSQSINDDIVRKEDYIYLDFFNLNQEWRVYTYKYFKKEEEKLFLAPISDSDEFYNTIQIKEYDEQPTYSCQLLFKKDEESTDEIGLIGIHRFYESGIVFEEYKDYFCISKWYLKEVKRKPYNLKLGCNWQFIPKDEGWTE
The assay can be described thus: ITC. Background: In ITC the heat of successive injections is recorded.

The values below come from article PMC3752466 (Nature communications, 2013).

Values joined by “and” are separate entries in the source; they are usually repeats but may differ in a detail not shown here. Equal values may be shown once.

In general, Kd refers to the constant that tells how readily two partners part at equilibrium. A high value points to lower affinity. For GESQEDMFAKLKDKFFNEINK [rat Syt-II peptide (residue 40-60)], the equilibrium dissociation constant (Kd) is 140 nM and 180 nM.
